The results in this text go back to article PMC8809517, “Cofactor-independent RNA editing by a synthetic S-type PPR protein”.

One may read the Kd as a measure of binding affinity in units of concentration. The low end stands for tighter binding, the high end for weaker binding.

Numbering of substitutions follows the chain as printed.

Holding throughout (experiment): high-throughput RNA pulldown from lysate on Ni-NTA beads; HRP: 50 mM Tris pH 8, 150 mM NaCl, 1 mM beta-mercaptoethanol, 50 ug/ml BSA, 3 ug/ml yeast RNA, 0.5% heparin; ITC and FP: Tris pH 8, 200 mM KCl, 5% glycerol; MST: 50 mM Tris pH 8, 200 mM NaCl, 1 mM DTT, BSA, heparin, 0.05% Tween 20
Conditions in all cases: tags: N-terminal His-eGFP

Data set [1] concerns the target T1, GFP-9S library array, motif 4 ND D124Q (synthetic construct, D124Q).
T1 chain: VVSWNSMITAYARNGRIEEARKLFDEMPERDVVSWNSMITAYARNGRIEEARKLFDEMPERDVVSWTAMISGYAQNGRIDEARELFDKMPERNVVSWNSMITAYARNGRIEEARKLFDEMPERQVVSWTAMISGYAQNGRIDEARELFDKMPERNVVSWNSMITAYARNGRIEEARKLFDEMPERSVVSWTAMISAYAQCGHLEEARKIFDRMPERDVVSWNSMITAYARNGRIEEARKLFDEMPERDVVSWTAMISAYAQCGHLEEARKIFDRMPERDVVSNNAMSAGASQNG

In data set [2] the target is T2, GFP-9S library array, motif 4 ND N98A;D124V (synthetic construct, N98A;D124V).
T2 chain: T1 chain with N98A, Q124V

For data set [3], the target named is T3, GFP-9S library array, motif 4 ND N98E;D124T (synthetic construct, N98E;D124T).
T3 chain: T1 chain with N98E, Q124T

In data set [4] the target is T4, GFP-9S library array, motif 4 ND D124I (synthetic construct, D124I).
T4 chain: T1 chain with Q124I

Data set [5] deals with T5, GFP-9S library array, motif 4 ND N98A;D124Q (synthetic construct, N98A;D124Q).
T5 chain: T1 chain with N98A

With AUUACACGUGA (ssRNA) [Cy5-rpoA], the dissociation constant Kd came to 68 nM in data set [1] (label: 5' Cy5); 91.2 nM in data set [2] (label: 5' Cy5); 130 nM in data set [3] (label: 5' Cy5); 53.8 nM in data set [4] (label: 5' Cy5); 249 nM in data set [5] (label: 5' Cy5).

With AUUAGACGUGA (ssRNA) [Cy5-rpoA-G], the Kd in data set [1] (label: 5' Cy5) is 898 nM; in data set [2] (label: 5' Cy5) it was 124 nM; in data set [3] (label: 5' Cy5), 123 nM; in data set [4] (label: 5' Cy5), 86.2 nM; in data set [5] (label: 5' Cy5), 174 nM.

As for AUUAUACGUGA (ssRNA) [IR-rpoA-U], the Kd in data set [1] (label: 5' IRDye 800CW) was 25.9 nM; in data set [2] (label: 5' IRDye 800CW), 152 nM; in data set [3] (label: 5' IRDye 800CW), 476 nM; in data set [4] (label: 5' IRDye 800CW), 26.7 nM; in data set [5] (label: 5' IRDye 800CW), 522 nM.

AUUAAACGUGA (ssRNA) [IR-rpoA-A]: the Kd was found to be 490 nM in data set [1] (label: 5' IRDye 800CW); 497 nM in data set [2] (label: 5' IRDye 800CW); 339 nM in data set [3] (label: 5' IRDye 800CW); 184 nM in data set [4] (label: 5' IRDye 800CW); 306 nM in data set [5] (label: 5' IRDye 800CW).
